B1: B2.0 (4B7 HC N32D+D62R+Y112D/LC S32R+D33F+N35I+D97T) (Fab, V domains shown)
VH: QVQLQQSGPGLVKPSQTLSLTCAISGDSVSSDSAAWSWIRQSPGRGLEWLGIIYKRSKWYNRYAVSVKSRITINPDTSKNQFSLQLNSVTPEDTAVYYCARWHSDKHWGFDDWGQGTLVTVSS
VL: DIVMTQSPLSLPVTPGEPASISCRSSQSLVFRFGITYLNWYLQKPGQSPQLLIYKGSNRASGVPDRFSGSGSGTDFTLKISRVEAEDVGVYYCQQYTSYPLTFGQGTKVEIKR
B2: B27.1 (4B7 HC N32D+D62R+Y112D/LC N35T+D97T) (Fab, V domains shown)
VH: B1 VH
VL: B1 VL with R32S, F33D, I35T
B3: B41.2 (4B7 HC N32D+D62R+Y112D/LC S32R+D33F+N35I) (Fab, V domains shown)
VH: B1 VH
VL: B1 VL with T97D
B4: gB9.7 (4B7 HC Q1E+N32D+G44S+K55Y+D62R+Y112D/LC S32R+N35I) (Fab, V domains shown)
VH: B1 VH with Q1E, G44S, K55Y
VL: B1 VL with F33D, T97D
B5: B32.5 (4B7 HC D62R+Y112D/LC D33F+N35I) (Fab, V domains shown)
VH: B1 VH with D32N
VL: B1 VL with R32S, T97D
B6: B18.5 (4B7 HC N32D+D62Q+Y112D/LC F31I+D33F+N35I) (Fab, V domains shown)
VH: B1 VH with R62Q
VL: B1 VL with F31I, R32S, T97D
B7: B9.7 (4B7 HC N32D+D62R+Y112D/LC S32R+N35I) (Fab, V domains shown)
VH: B1 VH
VL: B1 VL with F33D, T97D
B8: 2A8 HC_F104Y (Fab, V domains shown)
VH: QVQLVESGGGLVQPGGSLRLSCAASGFTFRSYGMSWVRQAPGKGLEWVSSIRGSSSSTYYADSVKGRFTISRDNSKNTLYLQMNSLRAEDTAVYYCARKYRYWYDYWGQGTLVTVSS
VL: DIELTQPPSVSVAPGQTARISCSGDNLRNYYAHWYQQKPGQAPVVVIYYDNNRPSGIPERFSGSNSGNTATLTISGTQAEDEADYYCQSWDDGVPVFGGGTKLTVLG
B9: 2A8 LC_D92S (Fab, V domains shown)
VH: B8 VH with Y104F
VL: B8 VL with D92S
B10: 2A8 LC_V96M (Fab, V domains shown)
VH: B8 VH with Y104F
VL: B8 VL with V96M
B11: 2A8 HC_I51D (Fab, V domains shown)
VH: B8 VH with I51D, Y104F
VL: B8 VL
notes: also called 2A8-12
B12: 2A8 LC_P54L (Fab, V domains shown)
VH: B8 VH with Y104F
VL: B8 VL with P54L
B13: 2A8 LC_N52G (Fab, V domains shown)
VH: B8 VH with Y104F
VL: B8 VL with N52G
B14: 2A8 HC_S35L (Fab, V domains shown)
VH: B8 VH with S35L, Y104F
VL: B8 VL
B15: 2A8 LC_V96W (Fab, V domains shown)
VH: B8 VH with Y104F
VL: B8 VL with V96W
B16: 2A8 LC_D92T (Fab, V domains shown)
VH: B8 VH with Y104F
VL: B8 VL with D92T
B17: 2A8 LC_V96G (Fab, V domains shown)
VH: B8 VH with Y104F
VL: B8 VL with V96G
B18: 2A8 LC_D91R (Fab, V domains shown)
VH: B8 VH with Y104F
VL: B8 VL with D91R
B19: 2A8 HC_S55A (Fab, V domains shown)
VH: B8 VH with S55A, Y104F
VL: B8 VL
B20: 2A8 HC_G33K (Fab, V domains shown)
VH: B8 VH with G33K, Y104F
VL: B8 VL
B21: 2A8 HC_S54D (Fab, V domains shown)
VH: B8 VH with S54D, Y104F
VL: B8 VL

Usually Kd stands for the equilibrium constant for the complex coming apart. High values mean a looser complex, low ones a tighter complex. For orientation: koff means the first-order rate constant of dissociation. The kon is a measure of how fast the partners come together. The low end stands for slower complex formation, the high end for faster complex formation.

Changes are numbered by the printed parent chain. Names may count otherwise.

The target of the first test is T1, human tissue factor pathway inhibitor (TFPI) (human, UniProt P10646 29-304, limits assumed).
T1 construct: bought; also called hTFPI; human TFPI
T1 sequence (looked up): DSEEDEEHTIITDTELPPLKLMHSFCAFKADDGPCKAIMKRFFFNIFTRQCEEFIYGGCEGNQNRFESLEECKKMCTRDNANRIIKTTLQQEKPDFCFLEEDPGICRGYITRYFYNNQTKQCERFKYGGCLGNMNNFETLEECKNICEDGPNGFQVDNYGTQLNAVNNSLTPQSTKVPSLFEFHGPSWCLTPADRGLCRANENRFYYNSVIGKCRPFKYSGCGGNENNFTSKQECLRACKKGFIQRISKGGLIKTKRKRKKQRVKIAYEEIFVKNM
In words: SPR, TFPI immobilized. (In general: Surface plasmon resonance follows binding to a sensor surface in real time, without labels.)
With B1, the KD fold improvement was determined as 2180 fold; the affinity, expressed as Kd, was 0.0051 nM; the koff came to 3.81e-05 s⁻¹; the kon was found to be 7.46e+06 M⁻¹ s⁻¹.
The like results for B2 were, in that order, 875 fold, 0.0127 nM, 3.53e-05 s⁻¹ and 2.78e+06 M⁻¹ s⁻¹.
The like results for B3 were, in that order, 1550 fold, 0.00716 nM, 2.47e-05 s⁻¹ and 3.46e+06 M⁻¹ s⁻¹.
For B4, in that order: 1090 fold, 0.0102 nM, 9.55e-06 s⁻¹ and 938000 M⁻¹ s⁻¹.
As for B5, the KD fold improvement came to 749 fold; the affinity, expressed as Kd, was 0.0148 nM; the koff was 3.19e-05 s⁻¹; the on-rate (kon) amounted to 2.15e+06 M⁻¹ s⁻¹.
For the molecule B6, the KD fold improvement was 428 fold, the Kd came out at 0.026 nM, the koff was found to be 3.18e-05 s⁻¹ and the kon stood at 1.23e+06 M⁻¹ s⁻¹.
The like results for B7 were, in that order, 1270 fold, 0.00878 nM, 2.61e-05 s⁻¹ and 2.97e+06 M⁻¹ s⁻¹.

A further test has as its target T1, human tissue factor pathway inhibitor …. The test is described as follows: competitive ELISA. A general note: An ELISA detects its analyte on a solid surface through an enzyme-linked reagent.
For B8, the variant/wild-type stood at 2 ratio.
Same read-out and setting: as for B9, the figure is 3.8 ratio; as for B10, 3.5 ratio; as for B11, 3.9 ratio.
Still for that read-out and setting: as for B12, the figure is 5.3 ratio; as for B13, 3.4 ratio.
The same measure, in the same setting: as for B14, the figure is 1.7 ratio; as for B15, 4 ratio; as for B16, 2.6 ratio.
Molecule B17 returned a variant/wild-type of 3.2 ratio.
Still for that read-out and setting: for B18 the value was 3.1 ratio; for B19, 2 ratio.
B20 showed a variant/wild-type of 1.8 ratio.
Take B21: the variant/wild-type is 1.7 ratio.

Another test deals with T2, mouse tissue factor pathway inhibitor (TFPI) (mouse, UniProt O54819 29-289, limits assumed).
T2 construct: bought; also called mTFPI; murine TFPI
T2 sequence (looked up): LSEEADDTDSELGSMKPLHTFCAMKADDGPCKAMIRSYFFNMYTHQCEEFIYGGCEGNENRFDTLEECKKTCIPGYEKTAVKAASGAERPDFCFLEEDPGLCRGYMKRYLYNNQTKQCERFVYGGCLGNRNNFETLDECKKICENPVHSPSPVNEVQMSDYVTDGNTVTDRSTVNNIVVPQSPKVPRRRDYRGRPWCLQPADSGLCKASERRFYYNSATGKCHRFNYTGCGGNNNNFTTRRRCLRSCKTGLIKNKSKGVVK
In words: competitive ELISA.
As for B8, the variant/wild-type amounted to 1.5 ratio.
As to B9, the variant/wild-type worked out at 2.6 ratio.
Molecule B10 came in with a variant/wild-type of 1.5 ratio.
As to B11, the variant/wild-type was determined as 1.4 ratio.
B12 yielded a variant/wild-type of 2.7 ratio.
Same read-out and setting: as for B13, the figure is 1.5 ratio.
The molecule B14 showed a variant/wild-type of 1.5 ratio.
In turn, B15 displayed a variant/wild-type of 4.3 ratio.
Turning to B16, the variant/wild-type is 1.2 ratio.
B17: the variant/wild-type came to 1.2 ratio.
In turn, B18 registered a variant/wild-type of 2 ratio.
Still for that read-out and setting: as for B19, the figure is 1.2 ratio; as for B20, 0.7 ratio; as for B21, 1.2 ratio.

The target of the next test is T1, human tissue factor pathway inhibitor …. The test is described as follows: competitive ELISA. This is another data set of the same source.
Take B1: the variant/HC_D62R worked out at 26.2 ratio.
On the same count and under the same terms, for B2 the value was 26 ratio.
Turning to B3, the variant/HC_D62R amounted to 29.7 ratio.
Same read-out and setting: as for B4, the figure is 22.6 ratio; as for B5, 20.3 ratio.
With B6, the variant/HC_D62R came to 22.4 ratio.
With B7, the variant/HC_D62R came to 26.1 ratio.

A further test deals with T2, mouse tissue factor pathway inhibitor …. In words: competitive ELISA. This is another data set of the same source.
With B1, the variant/HC_D62R came to 40 ratio.
Still for that read-out and setting: for B2 the value was 9.5 ratio; for B3, 42 ratio; for B4, 25.5 ratio.
On the same count and under the same terms, as for B5, the figure is 20.8 ratio.
As for B6, the variant/HC_D62R came out at 14 ratio.
The same measure, in the same setting: as for B7, the figure is 30.1 ratio.

The next test concerns the target T1, human tissue factor pathway inhibitor …. In words: SPR, TFPI immobilized. The source holds these as a separate data set.
On to B11, for which the Improvement amounted to 1.63 fold; the affinity, expressed as Kd, was 1.37 nM; the koff was determined as 0.00495 s⁻¹; the kon was found to be 3.61e+06 M⁻¹ s⁻¹.

Another test deals with T2, mouse tissue factor pathway inhibitor …. In words: SPR, TFPI immobilized.
The molecule B1 registered a KD fold improvement of 1210 fold, a Kd of 0.0451 nM, a koff of 0.000315 s⁻¹ and a kon of 6.99e+06 M⁻¹ s⁻¹.
In turn, B2 registered a KD fold improvement of 299 fold, a Kd of 0.183 nM, a koff of 0.000742 s⁻¹ and a kon of 4.06e+06 M⁻¹ s⁻¹.
Turning to B3, the KD fold improvement is 1060 fold, the Kd was determined as 0.0519 nM, the koff turned out to be 0.000245 s⁻¹ and the kon is 4.73e+06 M⁻¹ s⁻¹.
On to B4, for which the KD fold improvement worked out at 275 fold, the Kd came to 0.199 nM, the koff was 0.000185 s⁻¹ and the kon turned out to be 929000 M⁻¹ s⁻¹.
For B5, in that order: 528 fold, 0.104 nM, 0.000468 s⁻¹ and 4.52e+06 M⁻¹ s⁻¹.
On to B6, for which the KD fold improvement worked out at 139 fold, the Kd was determined as 0.395 nM, the koff is 0.00043 s⁻¹ and the kon is 1.09e+06 M⁻¹ s⁻¹.
Consider B7, for which the KD fold improvement stood at 588 fold, the Kd was 0.0931 nM, the koff was found to be 0.000334 s⁻¹ and the kon came to 3.59e+06 M⁻¹ s⁻¹.

The values above are taken from patent USRE47150 (Bayer, dated 2018).
